Residue numbers refer to the chain shown, from its start. In names and notes the source's numbering stands.
T1: Growth and Differentiation Factor-11 (GDF11) (UniProt O95390 299-407)
T1 construct: also called BMP11
T1 sequence (looked up): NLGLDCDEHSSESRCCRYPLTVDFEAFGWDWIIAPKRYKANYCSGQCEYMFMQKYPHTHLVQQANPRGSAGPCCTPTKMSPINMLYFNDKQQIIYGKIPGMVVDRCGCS

T2: Activin A (UniProt P08476 311-426)
T2 construct: also called ActA
T2 sequence (looked up): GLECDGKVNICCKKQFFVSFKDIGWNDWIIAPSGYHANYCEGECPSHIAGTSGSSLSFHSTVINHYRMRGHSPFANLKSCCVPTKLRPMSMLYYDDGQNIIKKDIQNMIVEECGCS

T3: Growth and Differentiation Factor-8 (GDF8) (UniProt O14793 267-375)
T3 construct: also called myostatin
T3 sequence (looked up): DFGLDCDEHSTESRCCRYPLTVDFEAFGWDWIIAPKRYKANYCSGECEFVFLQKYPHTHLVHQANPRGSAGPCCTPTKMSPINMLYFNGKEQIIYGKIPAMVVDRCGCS

B1: Soluble ActRIIB-Fc variant D54A (Fc fusion)
chain: GRGEAETRECIYYNANWELERTNQSGLERCEGEQAKRLHCYASWANSSGTIELVKKGCWLDDFNCYDRQECVATEENPQVYFCCCEGNFCNERFTHLPEA
notes: whole entry named; not shown: linker (if any) and Fc
B2: Soluble ActRIIB-Fc variant D80K (Fc fusion)
chain: B1 chain with A35D, D61K
notes: as for B1
B3: Soluble ActRIIB-Fc variant E37A (Fc fusion)
chain: B1 chain with E18A, A35D
notes: as for B1
B4: Soluble ActRIIB-Fc variant L79A (Fc fusion)
chain: B1 chain with A35D, L60A
notes: as for B1
B5: Soluble ActRIIB-Fc variant D80G (Fc fusion)
chain: B1 chain with A35D, D61G
notes: as for B1
B6: Soluble ActRIIB-Fc variant D80R (Fc fusion)
chain: B1 chain with A35D, D61R
notes: as for B1
B7: Soluble ActRIIB-Fc variant D80F (Fc fusion)
chain: B1 chain with A35D, D61F
notes: as for B1
B8: Soluble ActRIIB-Fc variant D80A (Fc fusion)
chain: B1 chain with A35D, D61A
notes: as for B1
B9: Soluble ActRIIB-Fc variant R56A (Fc fusion)
chain: B1 chain with A35D, R37A
notes: as for B1
B10: Soluble ActRIIB-Fc variant D80M (Fc fusion)
chain: B1 chain with A35D, D61M
notes: as for B1
B11: Soluble ActRIIB-Fc variant D80N (Fc fusion)
chain: B1 chain with A35D, D61N
notes: as for B1
B12: Soluble ActRIIB-Fc variant K74A (Fc fusion)
chain: B1 chain with A35D, K55A
notes: as for B1
B13: Soluble ActRIIB-Fc variant W78A (Fc fusion)
chain: B1 chain with A35D, W59A
notes: as for B1
B14: Soluble ActRIIB-Fc variant K55A (Fc fusion)
chain: B1 chain with A35D, K36A
notes: as for B1
B15: Soluble ActRIIB-Fc WT (64A) (Fc fusion, UniProt Q13705 19-119, looked up)
chain: SGRGEAETRECIYYNANWELERTNQSGLERCEGEQDKRLHCYASWANSSGTIELVKKGCWLDDFNCYDRQECVATEENPQVYFCCCEGNFCNERFTHLPEA
notes: as for B1
B16: Soluble ActRIIB-Fc variant K74Y (Fc fusion)
chain: B1 chain with A35D, K55Y
notes: as for B1
B17: Soluble ActRIIB-Fc variant D80I (Fc fusion)
chain: B1 chain with A35D, D61I
notes: as for B1
B18: Soluble ActRIIB-Fc variant K74I (Fc fusion)
chain: B1 chain with A35D, K55I
notes: as for B1
B19: Soluble ActRIIB-Fc variant K74F (Fc fusion)
chain: B1 chain with A35D, K55F
notes: as for B1
B20: ActRIIB(L79E 20-134)-hFc (Fc fusion)
chain: GRGEAETRECIYYNANWELERTNQSGLERCEGEQDKRLHCYASWRNSSGTIELVKKGCWEDDFNCYDRQECVATEENPQVYFCCCEGNFCNERFTHLPEAGGPEVTYEPPPTAPTGGGTHTCPPCPAPELLGGPSVFLFPPKPKDTLMISRTPEVTCVVVDVSHEDPEVKFNWYVDGVEVHNAKTKPREEQYNSTYRVVSVLTVLHQDWLNGKEYKCKVSNKALPVPIEKTISKAKGQPREPQVYTLPPSREEMTKNQVSLTCLVKGFYPSDIAVEWESNGQPENNYKTTPPVLDSDGSFFLYSKLTVDKSRWQQGNVFSCSVMHEALHNHYTQKSLSLSPGK
B21: ActRIIB(K74A 20-134)-hFc (Fc fusion)
chain: GRGEAETRECIYYNANWELERTNQSGLERCEGEQDKRLHCYASWRNSSGTIELVAKGCWLDDFNCYDRQECVATEENPQVYFCCCEGNFCNERFTHLPEAGGPEVTYEPPPTAPT
notes: not shown: linker (if any) and human Fc (hFc)
B22: ActRIIB(P129S, P130R 20-134)-hFc (Fc fusion)
chain: B21 chain with A55K, P110S, P111R
notes: T0017 prints a P129S P130A variant; kept as a separate molecule; not shown: linker (if any) and human Fc (hFc)
B23: ActRIIB(R64K 20-134)-hFc (Fc fusion)
chain: B21 chain with R45K, A55K
notes: as for B21
B24: ActRIIB(R64K 20-129)-hFc (Fc fusion)
chain: GRGEAETRECIYYNANWELERTNQSGLERCEGEQDKRLHCYASWKNSSGTIELVKKGCWLDDFNCYDRQECVATEENPQVYFCCCEGNFCNERFTHLPEAGGPEVTYEPP
notes: as for B21
B25: ActRIIB(A24N 20-134)-hFc (Fc fusion)
chain: B21 chain with A5N, A55K
notes: also called A24N variant; not shown: linker (if any) and human Fc (hFc)

target: T1, Growth and Differentiation Factor-11 …; test: BiaCore; ligand coupled, receptor flowed over

binding result | Kd | Binder
no binding | – | B1
no binding | – | B2
no binding | – | B3
no binding | – | B4
no binding | – | B5
no binding | – | B6
no binding | – | B7
no binding | – | B8
no binding | – | B9
no binding | – | B10
no binding | – | B11
– | 5300 pM | B12
no binding | – | B13
no binding | – | B14
– | 260000 pM | B15

target: T2, Activin A; test: BiaCore; ligand coupled, receptor flowed over

binding result | Kd | Binder
no binding | – | B2
no binding | – | B16
no binding | – | B3
no binding | – | B5
no binding | – | B17
no binding | – | B6
no binding | – | B7
no binding | – | B8
no binding | – | B9
no binding | – | B18
no binding | – | B10
no binding | – | B11
– | 4350 pM | B12
no binding | – | B13
no binding | – | B19
– | 180000 pM | B15

target: T3, Growth and Differentiation Factor-8 …; test: BiaCore; receptor-Fc captured by anti-hFc antibody, ligand injected
Procedure: (§1) Binding of certain ActRIIB-Fc proteins and GDF Traps to ligands was tested in a BiaCore™ assay.
(§2) The ActRIIB-Fc variants or wild-type protein were captured onto the system using an anti-hFc antibody. Ligands were injected and flowed over the captured receptor proteins.

Kd | koff | Binder
2410 pM | 0.0009 s⁻¹ | B20
71.8 pM | 2.03e-05 s⁻¹ | B21
1670 pM | 0.00018 s⁻¹ | B22
210 pM | 4.71e-05 s⁻¹ | B23
2150 pM | 0.000209 s⁻¹ | B24

target: T1, Growth and Differentiation Factor-11 …; test: as above
Procedure: as §1, §2

Kd | koff | Binder
716 pM | 0.000274 s⁻¹ | B20
51.9 pM | 6.35e-05 s⁻¹ | B25
35.6 pM | 2.41e-05 s⁻¹ | B23

target: T2, Activin A; test: as above
Procedure: as §1, §2

Kd | koff | kon | Binder
104 pM | 0.000346 s⁻¹ | 3.34e+06 M⁻¹ s⁻¹ | B25
83.1 pM | 0.000417 s⁻¹ | 5.02e+06 M⁻¹ s⁻¹ | B22
47.6 pM | 0.000325 s⁻¹ | 6.82e+06 M⁻¹ s⁻¹ | B23
84.1 pM | 0.000628 s⁻¹ | 7.46e+06 M⁻¹ s⁻¹ | B24

target: T1, Growth and Differentiation Factor-11 …; test: BiaCore; ligand coupled, receptor flowed over; legend: <1/5 WT binding

binding relative to WT | Binder
< 0.2 fold | B16
< 0.2 fold | B17
< 0.2 fold | B18
< 0.2 fold | B19

Reference: patent US20160326228A1 (ACCELERON PHARMA, published 2016)
